Key:
Format in all cases: cell-based, Saccharomyces cerevisiae
[1] = tested on: S. cerevisiae 334; assay: Comparison of MAELO and S. cerevisiae ELO2 PUFA elongase activity in baker's yeast; settings: 25 μM GLA; FIG. 12
Excerpt: The ELO2 gene encoding for the yeast elongase was cloned from an S. cerevisiae genomic library (Origene, Rockville, Md.) using the primers RO514 (SEQ ID NO: 94) (5′-GGCTATGGATCCATGAATTCACTCGTTACTCAATATG-3′) and RO515 (SEQ ID NO: 95)(5′-CCTGCCAAGCTTTTACCTTTTTCTTCTGTGTTGAG-3′) incorporating the restriction sites (underlined) BamHI and HindIII (respectively). The ELO2 gene was cloned into the vector pYX242 at the BamHI and HindIII sites, designated pRELO, transformed into the S. cerevisiae host 334 (Hoveland et al., supra) and screened for PUFA elongase activity. The vector plasmid was used as a negative control and 334(pRAE-5) was grown to compare the PUFA elongase activity. The cultures were grown as previously described with no galactose in the media and 25 μM GLA added as a substrate. […] Additionally, when DGLA produced is expressed as a percent of the total lipids (shown in parenthesis, FIG. 12), the clones 334(pRELO-1) and 334 (pRELO-2) produced 0.153% and 0.2% DGLA respectively, while 334(pYX242) produced 0.185% DGLA. […] The M. alpina PUFA elongase activity is specific for this conversion as evidenced by the higher amount of DGLA produced compared to the control, 334(pYX242).

[2] = tested on: S. cerevisiae 334; assay: Mouse elongase MELO7 activity in yeast; settings: for amount of TPA: may not be significant
Procedure: The construct pRAE-87 was transformed into S. cerevisiae 334 (Hoveland et al., supra) and screened for elongase activity. The negative control strain was S. cerevisiae 334 containing pYX242 vector. The cultures were grown for 42-48 hours at 30° C., in selective media (Ausubel et al., supra), in the presence of 25 _M of GLA, AA, STA, EPA, DPA, or ADA. […] The levels of these fatty acids were 4.1% (DGLA), 6.33% (ADA), 3.4% (ETA), and 6.18% (DPA), respectively, of the total fatty acids in the strain containing the pRAE-87 sequence. […] MELO7 protein (MELO7) was not involved in the elongation of ADA. MELO7p also appeared to be involved in further elongation of the fatty acid DPA produced by two-carbon elongation to TPA when EPA was the added substrate, and when DPA was added. However, the small amounts of the product fatty acids (0.27% and 0.25% of TPA) may not be significant.

[3] = tested on: S. cerevisiae 334; assay: T. aureum elongase TELO1 activity in yeast
Procedure: The constructs pRAT-4-A1 through pRAT-4-D1 were transformed into S. cerevisiae 334 (Hoveland et al., supra) and screened for elongase activity. S. cerevisiae 334 containing the unaltered pYX242 vector was used as a negative control. The cultures were grown for 48 hours at 24° C., in selective media (Ausubel et al., supra), in the presence of 25 (3)M of GLA or EPA. In this study, DGLA or ω3-docosapentaenoic acid (DPA, 22:5n-3), respectively, was the predicted product of the elongase activity. […] This was expected in that the cDNA sequence of pRAT-4-A3 had several stops at the 5′ end of the sequence, which would result in a truncated version of the translated enzyme (FIG. 76). Although the DGLA level was very low for 334(pRAT-4-A2), the GLA level was the lowest in this sample; therefore, the conversion level of the fatty acid to its elongated form was significant at 28.4%. What was not expected was that there was definite substrate specificity among the expressed enzymes. […]
To further confirm the substrate specificity of TELO1p, the recombinant yeast strain 334(pRAT-4-A7) was grown in minimal media containing 25 μM of various PUFAs. […] The levels of these fatty acids were 1.07% (C20:2n-6), 5.84% (DGLA), and 0.76% (ADA), respectively, of the total fatty acids in the lysates of 334(pRAT-4-A7). […] TELO1p is also involved in the elongation of n-3 PUFAs ALA, STA, and EPA (FIG. 88). […] The levels of these fatty acids were 2.71% ETrA, 4.19% (ETA), and 1.99% (DPA), respectively, of the total fatty acids in the strain containing the TELO1 sequence. […] When STA was added as a substrate, there was also an accumulation of DTA in the culture. The level of this fatty acid was 0.74%, which represented 15.0% conversion of ETA, the two-carbon chain elongated product from substrate STA.

[4] = tested on: S. cerevisiae 334; assay: Pavlova sp. elongase PELO1 activity in yeast; settings: for elongation of GLA to DGLA: 25 μM of GLA
Procedure: (§1) The construct pRPL-6-1 was transformed into S. cerevisiae 334 (Hoveland et al., supra) and screened for elongase activity. S. cerevisiae 334 containing the unaltered pYX242 vector was used as a negative control. The cultures were grown for 44 hours at 24°C, in selective media (Ausubel et al., supra), in the presence of 25 μM of GLA or EPA. In this study, DGLA or ω3-docosapentaenoic acid (DPA, 22:5n-3), respectively, was the predicted product of the elongase activity.
as §1, with “constructs pRPL-6-B2 and pRPL-6-A3 were” for “construct pRPL-6-1 was”, “24° C.,” for “24°C,”
To further confirm the substrate specificity of the algal elongation enzyme, described above and referred to herein as PELO1p, the recombinant yeast strain 334(pRPL-6-B2) was grown in minimal media containing n-6 fatty acids LA, GLA, DGLA, AA, or n-3 fatty acids ALA, STA, ETA, EPA, or 20:0, or 20:1. […] The levels of these fatty acids were 1.40% ADA and 2.54% […], respectively, of the total fatty acids in the strains containing the PELO1 sequence. […] No elongation of the saturated fatty acid 20:0, or monounsaturated fatty acid 20:1 was seen. Also, no elongation of the C18 substrates LA, GLA, ALA, or STA was seen.

[5] = 25 μM STA added as a substrate, FIG. 88
[6] = 25 μM of EPA, 44 hours at 24° C.

B1: 334(pRELO-1): individual clone of S. cerevisiae 334 overexpressing S. cerevisiae elongase ELO2 in pYX242 (pRELO) (protein, UniProt P25358 1-347, looked up)
Fatty acid elongase 2: MNSLVTQYAAPLFERYPQLHDYLPTLERPFFNISLWEHFDDVVTRVTNGRFVPSEFQFIAGELPLSTLPPVLYAITAYYVIIFGGRFLLSKSKPFKLNGLFQLHNLVLTSLSLTLLLLMVEQLVPIIVQHGLYFAICNIGAWTQPLVTLYYMNYIVKFIEFIDTFFLVLKHKKLTFLHTYHHGATALLCYTQLMGTTSISWVPISLNLGVHVVMYWYYFLAARGIRVWWKEWVTRFQIIQFVLDIGFIYFAVYQKAVHLYFPILPHCGDCVGSTTATFAGCAIISSYLVLFISFYINVYKRKGTKTSRVVKRAHGGVAAKVNEYVNVDLKNVPTPSPSPKPQHRRKR
DGLA produced as a percent of the total lipids [1]: 0.153% | amount of 20:3n-6 or DGLA produced relative to negative control pYX242 [1]: twice

B2: MELO7: second mouse PUFA elongation enzyme (SEQ ID NO:6), homologue of HSELO1, expressed from pRAE-87 (protein, listed as Mus musculus)
chain: MEHFDASLSTYFKAFLGPRDTRVKGWFLLDNYIPTFVCSVIYLLIVWLGPKYMKNRQPFSCRGILQLYNLGLTLLSLYMFYELVTGVWEGKYNFFCQGTRSAGESDMKIIRVLWWYYFSKLIEFMDTFFFILRKNNHQITVLHVYHHATMLNIWWFVMNWVPCGHSYFGATLNSFIHVLMYSYYGLSSIPSMRPYLWWKKYITQGQLVQFVLTIIQTTCGVFWPCSFPLGWLFFQIGYMISLIALFTNFYIQTYNKKGASRRKDHLKGHQNGSVAAVNGHTNSFPSLENSVKPRKQRKD
amount of TPA ([2]; DPA was added): 0.25% | amount of TPA ([2]; EPA was the added substrate): 0.27% | conversion of AA to ADA ([2]; substrate AA, FIG. 60): 36.0% | level of ADA, of the total fatty acids ([2]; substrate AA, FIG. 60): 6.33% | elongation of ADA ([2]; substrate ADA): not involved | conversion of EPA to DPA ([2]; substrate EPA, FIG. 60): 57.4% | level of DPA, of the total fatty acids ([2]; substrate EPA, FIG. 60): 6.18% | level of DGLA, of the total fatty acids ([2]; substrate GLA, 42-48 hours at 30° C., FIG. 60): 4.1% | conversion of GLA to DGLA ([2]; substrate GLA, FIG. 60): 78.7% | conversion of STA to ETA ([2]; substrate STA, FIG. 60): 81.0% | level of ETA, of the total fatty acids ([2]; substrate STA, FIG. 60): 3.4%

B3: TELO1: Thraustochytrium aureum 7091 elongase (SEQ ID NO:7) from plasmid pRAT-4-A7 (protein, listed as Thraustochytrium aureum)
chain: MANSSVWDDVVGRVETGVDQWMDGAKPYALTDGLPMMDVSTMLAFEVGYMAMLLFGIPIMKQMEKPFELKTIKLLHNLFLFGLSLYMCVETIRQAILGGYKVFGNDMEKGNESHAQGMSRIVYVFYVSKAYEFLDTAIMILCKKFNQVSFLHVYHHATIFAIWWAIAKYAPGGDAYFSVILNSFVHTVMYAYYFFSSQGFGFVKPIKPYITTLQMTQFMAMLVQSLYDYLFPCDYPQALVQLLGVYMITLLALFGNFFVQSYLKKPKKSKTN
conversion of AA to ADA ([3]; 25 μM AA, FIG. 88): 3.5% | level of ADA, of the total fatty acids ([3]; 25 μM AA, FIG. 88): 0.76% | conversion of ALA to ETrA ([3]; 25 μM ALA, FIG. 88): 43.3% | level of ETrA, of the total fatty acids ([3]; 25 μM ALA, FIG. 88): 2.71% | conversion of EPA to DPA ([3]; 25 μM EPA, FIG. 88): 11.5% | level of DPA, of the total fatty acids ([3]; 25 μM EPA, FIG. 88): 1.99% | conversion of GLA to DGLA ([3]; 25 μM GLA, FIG. 88): 78.6% | level of DGLA, of the total fatty acids ([3]; 25 μM GLA, FIG. 88): 5.84% | conversion of LA to C20:2n-6 ([3]; 25 μM LA, FIG. 88): 23.2% | level of C20:2n-6, of the total fatty acids ([3]; 25 μM LA, FIG. 88): 1.07% | conversion of ETA to DTA [3, 5]: 15.0% | level of DTA [3, 5]: 0.74% | conversion of STA to ETA ([3]; 25 μM STA, FIG. 88): 85.3% | level of ETA, of the total fatty acids ([3]; 25 μM STA, FIG. 88): 4.19% | levels of DPA ([3]; EPA added as a substrate, 48 hours at 24° C., FIG. 81): significant levels of DPA

B4: pRPL-6-1: PELO1 clone with a single mutation relative to pRPL-6-B2 that dramatically reduced conversion (protein)
chain: MMLAAGYLLVLSAARQSFQQDIDNPNGAYSTSWTGLPIVMSVVYLSGVFGLTKYFENRKPMTGLKDYMFTYNLYQVIINVWCVVAFLLEVRRAGMSLIGNKVDLGPNSFRLGFVTWVHYNNKYVELLDTLWMVLRKKTQQVSFLHVYHHVLLMWAWFVVVKLGNGGDAYFAGLMNSIIHVMMYSYYTMALLGWSCPWKRYLTQAQLVQFCICLAHSTWAAVTGAYPWRICLVEVWVMVSMLVLFTRFYRQAYAKEAKAKEAKKLAQEASQAKAVKAE
modifications: Pavlova sp. (specific species unknown)
DPA, of total fatty acids [4, 6]: 0.34% | EPA (substrate), of total fatty acids [4, 6]: 32.28% | elongation of GLA to DGLA ([4]; 44 hours at 24° C.): no conversion of GLA to DGLA was seen

B5: PELO1: Pavlova sp. 459 elongase (SEQ ID NO:119) from plasmid pRPL-6-B2 (protein)
chain: MMLAAGYLLVLSAARQSFQQDIDNPNGAYSTSWTGLPIVMSVVYLSGVFGLTKYFENRKPMTGLKDYMFTYNLYQVIINVWCVVAFLLEVRRAGMSLIGNKVDLGPNSFRLGFVTWVHYNNKYVELLDTLWMVLRKKTQQVSFLHVYHHVLLMWAWFVVVKLGNGGDAYFGGLMNSIIHVMMYSYYTMALLGWSCPWKRYLTQAQLVQFCICLAHSTWAAVTGAYPWRICLVEVWVMVSMLVLFTRFYRQAYAKEAKAKEAKKLAQEASQAKAVKAE
modifications: Pavlova sp. (specific species unknown)
conversion of the substrate EPA to DPA ([4]; 25 μM of EPA, 44 hours at 24° C., FIG. 99): significant levels of conversion | elongation of GLA to DGLA ([4]; 44 hours at 24° C.): GLA was not elongated to DGLA | elongation of saturated fatty acid 20:0 or monounsaturated fatty acid 20:1 ([4]; FIG. 101): No elongation | elongation of the C18 substrates LA, GLA, ALA, or STA ([4]; FIG. 101): no elongation | conversion of AA to ADA ([4]; substrate AA, FIG. 101): 14.0% | level of ADA, of the total fatty acids ([4]; substrate AA, FIG. 101): 1.40% | conversion of EPA to product elongated by two carbon atoms ([4]; substrate EPA, FIG. 101): 14.1% | level of EPA (so in the source), of the total fatty acids ([4]; substrate EPA, FIG. 101): 2.54%
